In patent US20250382367A1 (published 2025):

Columns and labels:
[1] = molecular target: T1, biotinylated CD150 protein (UniProt Q13291 21-237, labeled with biotin, sites not stated); assay: BLI
T1 chain: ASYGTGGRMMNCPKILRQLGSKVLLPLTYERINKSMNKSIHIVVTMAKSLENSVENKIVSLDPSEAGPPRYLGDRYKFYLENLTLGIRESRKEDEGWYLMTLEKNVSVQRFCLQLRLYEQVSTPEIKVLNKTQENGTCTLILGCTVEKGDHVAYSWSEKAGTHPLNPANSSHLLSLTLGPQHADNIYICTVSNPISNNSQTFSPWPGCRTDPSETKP

[2] = molecular target: CD150 protein (extracellular domain, hFc fragment cleaved off with TEV protease) (UniProt Q13291); assay: non-competitive ELISA; CD150 coated at 10 ug/mL, nanobody Fc fusion diluted 1:4 in series, HRP anti-IgG1 Fc detection

Kd [1]: 20.1 nM
EC50 [2]: 0.0333 µg/mL
B1: nanobody Fc fusion protein (anti-CD150 nanobody fused with human IgG1 Fc) (Fc fusion)
chain: QVQLVESGGGLVQAGGSLRLSCAASGRAFSDYAVGWFRQAPGREREFVATISWSGFSTYYADSVKGRFTISRDNAEKTVTLQMNSLKPEDTAVYYCAADRNGTSFPYIRRDEYDYWGQGTQVT
